Laboratory results as given in paper PMC10786891, “Massively parallel profiling of RNA-targeting CRISPR-Cas13d”.

Target: T1, EsCas13d, nuclease-dead (Eubacterium siraeum, UniProt B0MS50, R295A;H300A;R849A;H854A)
T1 sequence: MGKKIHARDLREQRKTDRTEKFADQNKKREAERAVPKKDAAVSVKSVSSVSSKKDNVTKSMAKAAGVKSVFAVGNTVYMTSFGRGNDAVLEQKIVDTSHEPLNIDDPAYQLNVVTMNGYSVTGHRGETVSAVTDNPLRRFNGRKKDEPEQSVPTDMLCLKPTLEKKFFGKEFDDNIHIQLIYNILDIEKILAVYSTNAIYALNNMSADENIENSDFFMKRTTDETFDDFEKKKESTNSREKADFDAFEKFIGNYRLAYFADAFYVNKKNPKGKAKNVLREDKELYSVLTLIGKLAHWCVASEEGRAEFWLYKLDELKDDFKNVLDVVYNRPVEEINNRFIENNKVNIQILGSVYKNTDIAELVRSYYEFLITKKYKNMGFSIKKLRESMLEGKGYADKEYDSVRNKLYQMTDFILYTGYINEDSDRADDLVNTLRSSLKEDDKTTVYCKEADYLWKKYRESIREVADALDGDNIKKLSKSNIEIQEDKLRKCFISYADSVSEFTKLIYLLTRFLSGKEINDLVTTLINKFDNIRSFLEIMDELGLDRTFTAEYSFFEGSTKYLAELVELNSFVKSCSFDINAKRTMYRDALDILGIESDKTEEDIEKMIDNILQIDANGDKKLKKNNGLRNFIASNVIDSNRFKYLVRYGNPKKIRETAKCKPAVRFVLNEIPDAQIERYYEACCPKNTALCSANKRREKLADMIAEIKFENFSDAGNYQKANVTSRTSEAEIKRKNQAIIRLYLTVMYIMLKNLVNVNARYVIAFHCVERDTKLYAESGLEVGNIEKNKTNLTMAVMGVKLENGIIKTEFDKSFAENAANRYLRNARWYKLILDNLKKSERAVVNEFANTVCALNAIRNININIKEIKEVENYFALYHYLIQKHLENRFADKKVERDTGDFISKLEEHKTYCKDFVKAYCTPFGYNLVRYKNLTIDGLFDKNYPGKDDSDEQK
Test: crRNA (strand 1, pre-loaded); Mg2+; 40 mM Tris-HCl pH 7.5, 150 mM NaCl, 6 mM MgCl2, 1 mM DTT, 0.1% Tween-20, 0.2 mg/ml BSA; 25 C; 10 min per concentration, then washed
Conditions: tags: His6-TwinStrep-SUMO cleaved; N-terminal SNAP kept (SNAP-Surface 488); label: 3' end held by stalled T7 RNA polymerase

B1: target 1 U8A,A18U (mixed)
RNA 1: CACCCGUGCAAAAAUGCAGGGGUCUAAAACUGAGCGGAUAACCUCUCUAUGG
RNA 2: GGGAAUGGAUCCACAUCUACGAAUUCGUACCAUUGAGAGGUUAACCGCUCACCGAGAUCGGAAGAGCACACGU
In the case of B1, the Kd is reported as 0.078 ± 0.023 µM.

B2: target 1 insA 3' of 4,insA 3' of 4 (mixed)
RNA 1: CACCCGUGCAAAAAUGCAGGGGUCUAAAACUGAGCGGAUAACCUCUCUAUGG
RNA 2: GGGAAUGGAUCCACAUCUACGAAUUCGUACCAUAGAGAGGUUAUCCGCAAUCACCGAGAUCGGAAGAGCACACGU
Binder B2 has a Kd of 0.00591 ± 0.00024 µM.

B3: target 1 complement block 7-9 (mixed)
RNA 1: CACCCGUGCAAAAAUGCAGGGGUCUAAAACUGAGCGGAUAACCUCUCUAUGG
RNA 2: GGGAAUGGAUCCACAUCUACGAAUUCGUACCAUAGAGAGGUUUAGCGCUCACCGAGAUCGGAAGAGCACACGU
In the case of B3, the Kd is reported as 0.00654 ± 0.00023 µM.

B4: target 1 insC 3' of 10,insC 3' of 3 (mixed)
RNA 1: CACCCGUGCAAAAAUGCAGGGGUCUAAAACUGAGCGGAUAACCUCUCUAUGG
RNA 2: GGGAAUGGAUCCACAUCUACGAAUUCGUACCAUAGAGAGGUUCAUCCGCUCCACCGAGAUCGGAAGAGCACACGU
B4 showed a Kd of 0.0202 ± 0.0031 µM.

B5: target 1 A9G,C21U (mixed)
RNA 1: CACCCGUGCAAAAAUGCAGGGGUCUAAAACUGAGCGGAUAACCUCUCUAUGG
RNA 2: GGGAAUGGAUCCACAUCUACGAAUUCGUACUAUAGAGAGGUUGUCCGCUCACCGAGAUCGGAAGAGCACACGU
B5 showed a Kd of 0.009 ± 0.0005 µM.

B6: target 1 insC 3' of 8,insA 3' of 5 (mixed)
RNA 1: CACCCGUGCAAAAAUGCAGGGGUCUAAAACUGAGCGGAUAACCUCUCUAUGG
RNA 2: GGGAAUGGAUCCACAUCUACGAAUUCGUACCAUAGAGAGGUUAUCCCGACUCACCGAGAUCGGAAGAGCACACGU
Binder B6 has a Kd of 0.0132 ± 0.0012 µM.

B7: target 1 U10C,G13U (mixed)
RNA 1: CACCCGUGCAAAAAUGCAGGGGUCUAAAACUGAGCGGAUAACCUCUCUAUGG
RNA 2: GGGAAUGGAUCCACAUCUACGAAUUCGUACCAUAGAGAUGUCAUCCGCUCACCGAGAUCGGAAGAGCACACGU
In the case of B7, the Kd is reported as 0.071 ± 0.018 µM.

B8: target 1 G5C,G12A (mixed)
RNA 1: CACCCGUGCAAAAAUGCAGGGGUCUAAAACUGAGCGGAUAACCUCUCUAUGG
RNA 2: GGGAAUGGAUCCACAUCUACGAAUUCGUACCAUAGAGAGAUUAUCCCCUCACCGAGAUCGGAAGAGCACACGU
B8 showed a Kd of 0.0086 ± 0.0004 µM.

B9: target 1 insG 3' of 2,insU 3' of 1 (mixed)
RNA 1: CACCCGUGCAAAAAUGCAGGGGUCUAAAACUGAGCGGAUAACCUCUCUAUGG
RNA 2: GGGAAUGGAUCCACAUCUACGAAUUCGUACCAUAGAGAGGUUAUCCGCUCGAUCCGAGAUCGGAAGAGCACACGU
B9 was tested, and the Kd was 0.0099 ± 0.0009 µM.

B10: target 1 A1G,C22A (mixed)
RNA 1: CACCCGUGCAAAAAUGCAGGGGUCUAAAACUGAGCGGAUAACCUCUCUAUGG
RNA 2: GGGAAUGGAUCCACAUCUACGAAUUCGUAACAUAGAGAGGUUAUCCGCUCGCCGAGAUCGGAAGAGCACACGU
Work on B10 yielded a Kd of 0.012 ± 0.0007 µM.

B11: target 1 C2U,A16G (mixed)
RNA 1: CACCCGUGCAAAAAUGCAGGGGUCUAAAACUGAGCGGAUAACCUCUCUAUGG
RNA 2: GGGAAUGGAUCCACAUCUACGAAUUCGUACCAUAGGGAGGUUAUCCGCUUACCGAGAUCGGAAGAGCACACGU
B11 was tested, and the Kd was 0.0393 ± 0.0027 µM.

B12: target 1 insG 3' of 14,insC 3' of 14 (mixed)
RNA 1: CACCCGUGCAAAAAUGCAGGGGUCUAAAACUGAGCGGAUAACCUCUCUAUGG
RNA 2: GGGAAUGGAUCCACAUCUACGAAUUCGUACCAUAGAGAGCGGUUAUCCGCUCACCGAGAUCGGAAGAGCACACGU
B12 showed a Kd of 0.034 ± 0.006 µM.

B13: target 1 A14G,C21A (mixed)
RNA 1: CACCCGUGCAAAAAUGCAGGGGUCUAAAACUGAGCGGAUAACCUCUCUAUGG
RNA 2: GGGAAUGGAUCCACAUCUACGAAUUCGUACAAUAGAGGGGUUAUCCGCUCACCGAGAUCGGAAGAGCACACGU
B13 showed a Kd of 0.046 ± 0.012 µM.

B14: target 1 del20,del22 (mixed)
RNA 1: CACCCGUGCAAAAAUGCAGGGGUCUAAAACUGAGCGGAUAACCUCUCUAUGG
RNA 2: GGGAAUGGAUCCACAUCUACGAAUUCGUACUAGAGAGGUUAUCCGCUCACCGAGAUCGGAAGAGCACACGU
B14 gave a Kd of 0.009 ± 0.0012 µM.

B15: target 1 C7U,A16G (mixed)
RNA 1: CACCCGUGCAAAAAUGCAGGGGUCUAAAACUGAGCGGAUAACCUCUCUAUGG
RNA 2: GGGAAUGGAUCCACAUCUACGAAUUCGUACCAUAGGGAGGUUAUUCGCUCACCGAGAUCGGAAGAGCACACGU
B15 gave a Kd of 0.0299 ± 0.0026 µM.

B16: target 1 insG 3' of 11,insG 3' of 6 (mixed)
RNA 1: CACCCGUGCAAAAAUGCAGGGGUCUAAAACUGAGCGGAUAACCUCUCUAUGG
RNA 2: GGGAAUGGAUCCACAUCUACGAAUUCGUACCAUAGAGAGGUGUAUCCGGCUCACCGAGAUCGGAAGAGCACACGU
B16 was tested, and the Kd was 0.039 ± 0.004 µM.

B17: target 1 insU 3' of 12,insA 3' of 2 (mixed)
RNA 1: CACCCGUGCAAAAAUGCAGGGGUCUAAAACUGAGCGGAUAACCUCUCUAUGG
RNA 2: GGGAAUGGAUCCACAUCUACGAAUUCGUACCAUAGAGAGGUUUAUCCGCUCAACCGAGAUCGGAAGAGCACACGU
In the case of B17, the Kd is reported as 0.007 ± 0.0004 µM.

B18: target 1 insC 3' of 20,insC 3' of 3 (mixed)
RNA 1: CACCCGUGCAAAAAUGCAGGGGUCUAAAACUGAGCGGAUAACCUCUCUAUGG
RNA 2: GGGAAUGGAUCCACAUCUACGAAUUCGUACCACUAGAGAGGUUAUCCGCUCCACCGAGAUCGGAAGAGCACACGU
B18 gave a Kd of 0.0085 ± 0.0004 µM.

B19: target 1 insG 3' of 2,insA 3' of 2 (mixed)
RNA 1: CACCCGUGCAAAAAUGCAGGGGUCUAAAACUGAGCGGAUAACCUCUCUAUGG
RNA 2: GGGAAUGGAUCCACAUCUACGAAUUCGUACCAUAGAGAGGUUAUCCGCUCGAACCGAGAUCGGAAGAGCACACGU
Binder B19 has a Kd of 0.01 ± 0.0008 µM.

B20: target 1 insA 3' of 17,insA 3' of 5 (mixed)
RNA 1: CACCCGUGCAAAAAUGCAGGGGUCUAAAACUGAGCGGAUAACCUCUCUAUGG
RNA 2: GGGAAUGGAUCCACAUCUACGAAUUCGUACCAUAGAAGAGGUUAUCCGACUCACCGAGAUCGGAAGAGCACACGU
Binder B20 has a Kd of 0.0106 ± 0.0011 µM.

B21: target 1 insA 3' of 10,insG 3' of 9 (mixed)
RNA 1: CACCCGUGCAAAAAUGCAGGGGUCUAAAACUGAGCGGAUAACCUCUCUAUGG
RNA 2: GGGAAUGGAUCCACAUCUACGAAUUCGUACCAUAGAGAGGUUAAGUCCGCUCACCGAGAUCGGAAGAGCACACGU
B21 showed a Kd of 0.0183 ± 0.0008 µM.

B22: target 1 C6U,G13U (mixed)
RNA 1: CACCCGUGCAAAAAUGCAGGGGUCUAAAACUGAGCGGAUAACCUCUCUAUGG
RNA 2: GGGAAUGGAUCCACAUCUACGAAUUCGUACCAUAGAGAUGUUAUCUGCUCACCGAGAUCGGAAGAGCACACGU
With B22 the Kd was 0.038 ± 0.005 µM.

B23: target 1 del17,del19 (mixed)
RNA 1: CACCCGUGCAAAAAUGCAGGGGUCUAAAACUGAGCGGAUAACCUCUCUAUGG
RNA 2: GGGAAUGGAUCCACAUCUACGAAUUCGUACCAAAGAGGUUAUCCGCUCACCGAGAUCGGAAGAGCACACGU
Work on B23 yielded a Kd of 0.05 ± 0.005 µM.

B24: target 1 insA 3' of 15,insU 3' of 2 (mixed)
RNA 1: CACCCGUGCAAAAAUGCAGGGGUCUAAAACUGAGCGGAUAACCUCUCUAUGG
RNA 2: GGGAAUGGAUCCACAUCUACGAAUUCGUACCAUAGAGAAGGUUAUCCGCUCUACCGAGAUCGGAAGAGCACACGU
For B24, the Kd was 0.0065 ± 0.0004 µM.

B25: target 1 C6U (mixed)
RNA 1: CACCCGUGCAAAAAUGCAGGGGUCUAAAACUGAGCGGAUAACCUCUCUAUGG
RNA 2: GGGAAUGGAUCCACAUCUACGAAUUCGUACCAUAGAGAGGUUAUCUGCUCACCGAGAUCGGAAGAGCACACGU
For B25, the Kd was 0.0085 ± 0.0004 µM.

B26: target 1 insA 3' of 22,insG 3' of 7 (mixed)
RNA 1: CACCCGUGCAAAAAUGCAGGGGUCUAAAACUGAGCGGAUAACCUCUCUAUGG
RNA 2: GGGAAUGGAUCCACAUCUACGAAUUCGUACACAUAGAGAGGUUAUCGCGCUCACCGAGAUCGGAAGAGCACACGU
In the case of B26, the Kd is reported as 0.00862 ± 0.00035 µM.

B27: target 1 G5A,G12A (mixed)
RNA 1: CACCCGUGCAAAAAUGCAGGGGUCUAAAACUGAGCGGAUAACCUCUCUAUGG
RNA 2: GGGAAUGGAUCCACAUCUACGAAUUCGUACCAUAGAGAGAUUAUCCACUCACCGAGAUCGGAAGAGCACACGU
For B27, the Kd was 0.0102 ± 0.0015 µM.

B28: target 1 C7U,G13C (mixed)
RNA 1: CACCCGUGCAAAAAUGCAGGGGUCUAAAACUGAGCGGAUAACCUCUCUAUGG
RNA 2: GGGAAUGGAUCCACAUCUACGAAUUCGUACCAUAGAGACGUUAUUCGCUCACCGAGAUCGGAAGAGCACACGU
Work on B28 yielded a Kd of roughly 0.07 µM.
